Literature values, collected in PMC2882753.

Tests used:
His154 = experiment: NMR; details: 298 K; not stated (no ferricyanide present); oxidized [2Fe-2S] cluster
His134 = experiment: NMR; details: 298 K; not stated (no ferricyanide present); oxidized [2Fe-2S] cluster

In the case of “Rieske iron-sulfur protein, soluble fragment (TtRp) (Thermus thermophilus; del1-45;del202-210;W142F)”, the pKa (His154) is given as 7.46 ± 0.02 and the pKa (His134) is given as 9.24 ± 0.02.
